From patent US4771127A (priority 1985, dated 1988)

What was measured:
mice = conditions: mouse, in vivo, ip
[1] = rabbit, in vivo, iv
specific IgG antibody = test system: specific IgG antibody; parameters: species or system rabbits; conditions: rabbit, in vivo

Tetanus Toxoid
Toxicity (class) (mice): Nontoxic (key: Nontoxic: a minimum of 50 ug of antigen administered intraperitoneally resulted in no mortality) | Pyrogenicity (highest dose with rise in body temperature ≤ +0.3° C.) [1]: 50 ug/ml/kg body weight | Immunogenicity (specific IgG antibody): Immunogenic
